Reference: patent US10772972B2, “Anti-STEAP2 antibody drug conjugates, and compositions and uses thereof” (Regeneron Pharmaceuticals, Inc., priority 2016, dated 2020)
Changes are numbered by the printed parent chain.

T1: hSTEAP4 fused to GFP (Homo sapiens, UniProt Q687X5)
T1 construct: expressed in transfected cells; host or cells: HEK293
T1 sequence (Q687X5 1-459): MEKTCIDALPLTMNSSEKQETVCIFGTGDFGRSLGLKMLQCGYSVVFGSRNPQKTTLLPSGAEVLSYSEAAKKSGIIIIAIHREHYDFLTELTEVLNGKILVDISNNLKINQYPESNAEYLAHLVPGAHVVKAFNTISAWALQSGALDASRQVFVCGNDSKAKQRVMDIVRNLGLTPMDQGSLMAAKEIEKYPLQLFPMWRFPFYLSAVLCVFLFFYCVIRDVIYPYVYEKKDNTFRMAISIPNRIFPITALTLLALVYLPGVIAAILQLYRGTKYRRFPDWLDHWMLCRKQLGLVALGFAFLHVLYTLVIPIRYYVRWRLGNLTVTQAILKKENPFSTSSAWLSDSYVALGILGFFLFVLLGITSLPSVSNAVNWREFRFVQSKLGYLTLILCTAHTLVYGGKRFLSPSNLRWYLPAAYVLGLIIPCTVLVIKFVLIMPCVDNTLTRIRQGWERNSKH

T2: hSTEAP2 fused to GFP (Homo sapiens, UniProt Q8NFT2)
T2 construct: expressed in transfected cells; host or cells: HEK293
T2 sequence (Q8NFT2 1-490): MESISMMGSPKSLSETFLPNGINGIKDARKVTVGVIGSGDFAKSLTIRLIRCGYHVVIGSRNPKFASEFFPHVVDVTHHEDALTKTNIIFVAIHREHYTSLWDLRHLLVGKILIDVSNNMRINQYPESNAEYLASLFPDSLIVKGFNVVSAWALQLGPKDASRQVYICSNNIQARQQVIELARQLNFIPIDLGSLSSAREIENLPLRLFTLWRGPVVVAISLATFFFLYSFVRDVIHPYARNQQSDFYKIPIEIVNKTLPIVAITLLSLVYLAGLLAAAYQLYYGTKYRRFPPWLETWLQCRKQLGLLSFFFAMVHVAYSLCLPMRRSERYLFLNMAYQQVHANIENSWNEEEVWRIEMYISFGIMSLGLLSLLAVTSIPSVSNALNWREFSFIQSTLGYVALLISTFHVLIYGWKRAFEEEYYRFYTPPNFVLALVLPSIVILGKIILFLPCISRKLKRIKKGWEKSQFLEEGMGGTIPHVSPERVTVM

T3: hSTEAP3 fused to GFP (Homo sapiens, UniProt Q658P3)
T3 construct: expressed in transfected cells; host or cells: HEK293
T3 sequence (Q658P3 1-488): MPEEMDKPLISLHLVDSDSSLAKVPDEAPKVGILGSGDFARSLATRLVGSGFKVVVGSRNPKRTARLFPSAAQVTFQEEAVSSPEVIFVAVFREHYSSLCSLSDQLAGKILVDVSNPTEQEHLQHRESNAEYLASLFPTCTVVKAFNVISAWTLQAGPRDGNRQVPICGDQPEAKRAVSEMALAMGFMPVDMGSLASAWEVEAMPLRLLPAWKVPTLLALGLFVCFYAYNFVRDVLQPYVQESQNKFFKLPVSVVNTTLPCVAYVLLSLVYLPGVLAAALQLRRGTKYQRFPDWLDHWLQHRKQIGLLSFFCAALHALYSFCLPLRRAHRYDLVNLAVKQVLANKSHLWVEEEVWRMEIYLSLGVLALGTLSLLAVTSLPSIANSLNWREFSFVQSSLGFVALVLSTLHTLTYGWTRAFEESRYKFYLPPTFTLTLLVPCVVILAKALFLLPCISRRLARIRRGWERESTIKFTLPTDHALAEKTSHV

B1: H1H7972P: anti-STEAP2 antibody, HCVR/LCVR SEQ ID NOs 186/194 (antibody, V domains shown)
VH: QVQLQQSGPGLVKPSQTLSLTCAISGDSVSSNSAAWNWIRQSPSRGLEWLGRTYYRSKWYNDYVVSVKSRIIFNPDTSKNQFSLQLNSVTPEDTAVYYCARVRQDYRSGPFDYWGQGTLVTVSS
VL: EIVMTQSPVTLSVSPGERATLSCWASQSVSSSLAWYQQKPGQAPRLLIYGASTRATGIPARFSGSGSGTGFTLTISSLQSEDFAVYYCQQYNNWPFTFGPGTKVDIK
B2: H1H11162N: human-Fc anti-STEAP2 antibody, HCVR/LCVR SEQ ID NOs 250/258 (antibody, V domains shown)
VH: QVQLQQSGPGLVKPSQTLSLTCAISGDSVSSNRAAWNWIRQSPSRGLQWLGRTYYRSKWYNDYAVSLRSRITINPVTSKNQVALHMNSVTPEDTAVYYCARAGIVVVPGPETFYYYDHGLDVWGQGTTVTVSS
VL: DIQMTQSPSSLSASVGDRVTITCRASQSIRSYLNWYQQKPGKAPELLIHAASSLQSGVPSRFSGSGSGTDFTLTISSLQPEDFASYYCQQSYSAPPITFGQGTRLEIK
modifications: human Fc
B3: H1H7809N: human-Fc anti-STEAP2 antibody, HCVR SEQ ID NO: 330 (antibody, V domains shown)
VH: QVQLVESGGGVVQPGRSLGLSCAASGFTFSSYGMHWVRQAPGKGLEWVAVIWYDGSNKYYVDSVKGRFTISRDNSKNTLYLQMNSLRAEDTAVYYCAREGLRFLENYYYYYGMDVWGQGTTVTVSS
VL: EIVLTQSPGTLSLSPGERATLSCRASQSISSTYLAWYQQRPGQAPRLLIYGASSRATGIPDRFSGSGSGTDFTLTISRLEPEDFAVYYCQQYGTSPYTFGQGTKLEIK
B4: H2M7810N: anti-STEAP2 antibody, HCVR/LCVR SEQ ID NOs 346/354 (antibody, V domains shown)
VH: QVQLVESGGGVVQPGRSLRLSCAVSGFTSSTYGMNWVRQAPGKGLEWVAVISYDGSNKYYADSVKGRFTISRDNSKNTLYLQMNSLRPEDTAVYYCARGRYFDLWGRGTLVTVSS
VL: DIQMTQSPSTLSASVGDRVTITCRASQIISSWLAWYQQKPGKAPKLLIYKASSLASGVPSRFSGSGSGTEFTLTISSLQPDDFATYYCQQYKSYSYTFGQGTKLEIK
B5: H2M7811N: anti-STEAP2 antibody, HCVR/LCVR SEQ ID NOs 362/370 (antibody, V domains shown)
VH: B4 VH with Y53F, N84S
VL: B4 VL with I2T, K103N
B6: H1M7814N: anti-STEAP2 antibody, mouse IgG1 Fc, HCVR/LCVR SEQ ID NOs 218/226 (antibody, V domains shown)
VH: B4 VH with A23V, V24A, S29I, T31S, S56G, Y60S, A61V, P88A, T91S
VL: B4 VL with I28S, K42R, K45N, Y49S, A55K, I75V, K92Y
modifications: mouse IgG1 Fc
B7: H2M7807N: anti-STEAP2 antibody, HCVR/LCVR SEQ ID NOs 314/322 (antibody, V domains shown)
VH: B4 VH
VL: B4 VL with K103N

What was measured:
hSTEAP1 fused to GFP = molecular target: T4, hSTEAP1 fused to GFP (Homo sapiens, UniProt Q9UHE8); assay: Specificity: binding to HEK293 cells transfected with hSTEAP1-GFP; design: key: Wells with GFP positive cells that bound anti STEAP2 antibodies were scored as positive (+); those that did not bind anti STEAP2 antibodies were scored as negative (−); conditions: transient transfection, 48 h
T4 construct: expressed in transfected cells; host or cells: HEK293
T4 sequence (Q9UHE8 whole entry, the tested form may be a part): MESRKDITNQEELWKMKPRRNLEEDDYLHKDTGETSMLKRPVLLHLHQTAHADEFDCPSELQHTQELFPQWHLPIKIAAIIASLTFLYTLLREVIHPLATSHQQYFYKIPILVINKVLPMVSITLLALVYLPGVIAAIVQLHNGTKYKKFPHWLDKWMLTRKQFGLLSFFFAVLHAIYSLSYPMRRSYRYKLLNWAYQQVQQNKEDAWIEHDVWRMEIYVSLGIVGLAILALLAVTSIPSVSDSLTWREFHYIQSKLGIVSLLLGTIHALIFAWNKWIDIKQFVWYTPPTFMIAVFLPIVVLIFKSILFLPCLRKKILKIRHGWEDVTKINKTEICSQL
Description: (§1) Selected STEAP2 antibodies were then tested for binding to other human (h) STEAP family members (STEAP1, STEAP3, and STEAP4). To assess anti STEAP2 antibody specificity, plasmid constructs expressing hSTEAP1, hSTEAP2, hSTEAP3 or hSTEAP4 fused to Green Fluorescent Protein (GFP) were transiently introduced into HEK293 cells via lipofectamine 2000 based methodology. After 48 h, transiently transfected cells were stained with anti STEAP2 antibodies and imaged as described above for the internalization assay.

[1] = test system: C4-2 cells (high-STEAP2 expressing); assay: Internalization and total binding on C4-2 cells (imaging, qualitative score); assay type: cell-based, human; design: key: − (no internalization or binding); +(weak internalization or binding); ++(moderate internalization or binding); +++(robust internalization or binding); conditions: 10 μg/ml antibody
Description: Briefly, 20,000 C4-2 cells were seeded in PDL coated 96 well plates. The next day, cells were incubated with anti-human STEAP2 antibodies (10 μg/ml) for 30 min on ice followed by two PBS washes. Cells were then incubated with alexa488-conjugated anti-hFc Fab secondary antibody for 30 minutes on ice, followed by two additional PBS washes. Antibodies were allowed to internalize for 1 h at 37° C. in internalization buffer (PBS+2% FBS) or were maintained at 4° C. Cells were fixed in 4% formaldehyde, nuclei were stained with DRAQ5 (Cell signaling), and images were acquired on the ImageXpress micro XL (Molecular Devices).
A qualitative visual assessment of the total binding intensity and the intensity of antibodies that had internalized into vesicles was performed and scored according to the following criteria: − (no internalization or binding), +(weak internalization or binding), ++(moderate internalization or binding) and +++(robust internalization or binding).

[2] = test system: FADU cells (STEAP2 negative); assay: FACS binding to STEAP2-negative FADU cells; conditions: human-Fc antibodies
Description: (§2) The ability of anti-STEAP2 antibodies to selectively bind to human six-transmembrane epithelial antigen of prostate 2 (STEAP2) endogenously expressing cell lines was determined via FACS analysis.
(§3) Briefly, 1×10^5 cells were incubated with 10 μg/ml of anti STEAP2 antibodies, or isotype control antibodies for 30 min on ice in antibody dilution buffer. Following one wash with antibody dilution buffer, cells were incubated with 10 μg/ml of PE conjugated anti-human or anti mouse Fc secondary antibodies for 30 min on ice. Following one additional wash, samples were incubated with Cytofix (1% formaldehyde) for 20 minutes. After one final wash, samples were filtered through a Pall 96 well filtration block, run on a Hypercyt® cytometer and analyzed in ForeCyt™ (IntelliCyt, Albuquerque, N. Mex.). Mean fluorescence intensities (MFI) were expressed as fold change above unstained levels (background). The average fold above background at antibody concentrations of 100-300 nM were determined. For cell binding EC50 determinations, mAb concentrations ranged from 300 nM to […] and EC50 values were determined from a four-parameter logistic equation over a 12-point response curve (GraphPad Prism).

hSTEAP4 fused to GFP = molecular target: T1, hSTEAP4 fused to GFP; assay: Specificity: binding to HEK293 cells transfected with hSTEAP4-GFP; design: key: Wells with GFP positive cells that bound anti STEAP2 antibodies were scored as positive (+); those that did not bind anti STEAP2 antibodies were scored as negative (−); conditions: transient transfection, 48 h
Description: as §1

[3] = test system: Raji cells (STEAP2 negative); assay: FACS binding to STEAP2-negative Raji cells; conditions: human-Fc antibodies
Description: as §2, §3

hSTEAP2 fused to GFP = molecular target: T2, hSTEAP2 fused to GFP; assay: Specificity: binding to HEK293 cells transfected with hSTEAP2-GFP; design: key: Wells with GFP positive cells that bound anti STEAP2 antibodies were scored as positive (+); those that did not bind anti STEAP2 antibodies were scored as negative (−); conditions: transient transfection, 48 h
Description: as §1

hSTEAP3 fused to GFP = molecular target: T3, hSTEAP3 fused to GFP; assay: Specificity: binding to HEK293 cells transfected with hSTEAP3-GFP; design: key: Wells with GFP positive cells that bound anti STEAP2 antibodies were scored as positive (+); those that did not bind anti STEAP2 antibodies were scored as negative (−); conditions: transient transfection, 48 h
Description: as §1

[4] = test system: SKBR3 cells (STEAP2 negative); assay: FACS binding to STEAP2-negative SKBR3 cells; conditions: human-Fc antibodies
Description: as §2, §3

| Molecule | Binding to hSTEAP1-GFP transfected HEK293 cells (hSTEAP1 fused to GFP) | Internalization (37° C., 1 h) Qualitative Score [1] | Total Binding (4° C.) Qualitative Score [1] | FADU Avg F.A.B (Fold Above Background) [2] | Binding to hSTEAP4-GFP transfected HEK293 cells (hSTEAP4 fused to GFP) | Raji Avg F.A.B (Fold Above Background) [3] | Binding to hSTEAP2-GFP transfected HEK293 cells (hSTEAP2 fused to GFP) | Binding to hSTEAP3-GFP transfected HEK293 cells (hSTEAP3 fused to GFP) | SKBR3 Avg F.A.B (Fold Above Background) [4] |
| --- | --- | --- | --- | --- | --- | --- | --- | --- | --- |
| B1 | − | + | + | 2 fold | − | 59 fold | + | − | 3 fold |
| B2 |  | +++ | +++ | 3 fold |  | 2 fold |  |  | 3 fold |
| B3 |  |  |  | 21 fold |  | 3 fold |  |  | 37 fold |
| B4 | − |  |  |  | − |  | + | − |  |
| B5 | − |  |  |  | − |  | + | − |  |
| B6 | − |  |  |  | − |  | + | − |  |
| B7 | − |  |  |  | − |  | + | − |  |
